Source: US20240182547A1 (MOGAM INSTITUTE FOR BIOMEDICAL RESEARCH, published 2024)
Where a chain is given by its changes, count along the chain named.

B1: 12F7 (antibody, V domains shown)
VH: QMQLVQSGPEVKKPGSSVKVSCKASGYTFTDYGLSWVRQAPGHGLEWMGWITAYNGDTNYAQKFQDRLSVTTDISTSTAYMELRSLKSDDTAVYYCARHVFCSGDGCYSGLGSWGQGTLVTVSS
VL: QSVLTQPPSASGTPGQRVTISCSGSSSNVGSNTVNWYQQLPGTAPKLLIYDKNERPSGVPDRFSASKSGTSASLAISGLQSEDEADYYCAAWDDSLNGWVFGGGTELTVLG
notes: IgG made in Expi293; also called #38; 38
B2: 4H11 (antibody, V domains shown)
VH: B1 VH with M2V, P9A, S16A
VL: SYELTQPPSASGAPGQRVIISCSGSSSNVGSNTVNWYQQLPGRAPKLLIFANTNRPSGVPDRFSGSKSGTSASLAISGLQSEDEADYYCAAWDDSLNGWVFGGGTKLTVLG
notes: IgG made in Expi293; also called #40; 40
B3: 2G3 (antibody, V domains shown)
VH: B1 VH with M2V, P9A, S16A
VL: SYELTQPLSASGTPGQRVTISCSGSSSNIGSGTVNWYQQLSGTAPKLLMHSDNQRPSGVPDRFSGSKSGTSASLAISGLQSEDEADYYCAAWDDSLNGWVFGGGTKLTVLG
notes: IgG made in Expi293; also called #41; 41
B4: 2E8 (antibody, V domains shown)
VH: B1 VH with M2V
VL: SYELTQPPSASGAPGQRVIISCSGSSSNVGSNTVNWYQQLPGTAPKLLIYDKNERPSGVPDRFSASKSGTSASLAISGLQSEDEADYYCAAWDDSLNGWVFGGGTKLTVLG
notes: IgG made in Expi293; also called #46; 46
B5: #40m (antibody, V domains shown)
VH: B1 VH with M2V, P9A, S16A
VL: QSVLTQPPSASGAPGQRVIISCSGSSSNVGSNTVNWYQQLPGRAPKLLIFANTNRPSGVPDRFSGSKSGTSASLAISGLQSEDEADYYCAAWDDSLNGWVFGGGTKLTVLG
notes: Germline-edited (m) form of 4H11, light chain edited; IgG; also called 4H11 (modified)
B6: 3E8 (antibody, V domains shown)
VH: B1 VH with M2V, P9S, S16A
VL: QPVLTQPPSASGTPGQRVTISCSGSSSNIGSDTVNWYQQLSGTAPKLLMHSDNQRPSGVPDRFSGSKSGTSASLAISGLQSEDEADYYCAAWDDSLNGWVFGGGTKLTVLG
notes: IgG made in Expi293; also called #43; 43
B7: #49m (antibody, V domains shown)
VH: B1 VH with M2V, P9A, S16A
VL: QSVLTQPPSASGAPGQRVIISCSGSSSNVGSNTVNWYQQLPGTAPKLLIYDKNERPSGVPDRFSASKSGTSSSLAIGGLRSEDEADYYCATWDDNLNGWVFGGGTKLTVLG
notes: Germline-edited (m) form of 4H7, light chain edited; IgG; also called 4H7 (modified)
B8: #41m (antibody, V domains shown)
VH: B1 VH with M2V, P9A, S16A
VL: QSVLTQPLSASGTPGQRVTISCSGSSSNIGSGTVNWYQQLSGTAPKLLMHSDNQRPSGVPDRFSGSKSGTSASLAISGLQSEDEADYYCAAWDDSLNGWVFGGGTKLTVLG
notes: Germline-edited (m) form of 2G3, light chain edited; IgG; also called 2G3 (modified)
B9: #38m (antibody, V domains shown)
VH: B1 VH with M2V, P9A, S16A
VL: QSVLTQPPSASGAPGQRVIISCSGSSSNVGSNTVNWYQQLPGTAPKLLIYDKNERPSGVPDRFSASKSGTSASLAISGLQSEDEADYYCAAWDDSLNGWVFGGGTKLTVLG
notes: Germline-edited (m) form of 12F7, heavy and light chain edited; IgG; also called 12F7 (modified)
B10: 4E9 (antibody, V domains shown)
VH: B1 VH with M2V, P9A
VL: B7 VL with A10V, I19T, A90G
notes: IgG made in Expi293; also called #48; 48
B11: #45m (antibody, V domains shown)
VH: B1 VH with M2V, P9S, S16A
VL: not shown
notes: Germline-edited (m) form of 4G5, light chain edited; IgG; also called 4G5 (modified)
B12: 12C10 (antibody, V domains shown)
VH: B1 VH with M2V, P9S, S16A
VL: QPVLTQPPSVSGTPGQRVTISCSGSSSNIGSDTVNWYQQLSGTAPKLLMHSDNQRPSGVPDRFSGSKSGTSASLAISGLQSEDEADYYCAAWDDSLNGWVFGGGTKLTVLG
notes: IgG made in Expi293; also called #42; 42
B13: #46m (antibody, V domains shown)
VH: B1 VH with M2V
VL: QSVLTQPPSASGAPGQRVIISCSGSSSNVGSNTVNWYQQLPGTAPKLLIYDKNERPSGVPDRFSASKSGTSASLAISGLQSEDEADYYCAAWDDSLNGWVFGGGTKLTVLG
notes: Germline-edited (m) form of 2E8, light chain edited; IgG; also called 2E8 (modified)
B14: 4G5 (antibody, V domains shown)
VH: B1 VH with M2V, P9S, S16A
VL: not shown
notes: IgG made in Expi293; also called #45; 45
B15: 4H7 (antibody, V domains shown)
VH: B1 VH with M2V, P9A, S16A
VL: B7 VL with Q1S, S2Y, V3E
notes: IgG made in Expi293; also called #49; 49
B16: 3E7 (antibody, V domains shown)
VH: B1 VH with Q1E, M2V, Q6E, P9T, S16A
VL: B7 VL with A90G
notes: IgG made in Expi293; also called #51; 51
B17: #50m (antibody, V domains shown)
VH: B1 VH with M2V, P9A, S16A
VL: B7 VL with A90G
notes: Germline-edited (m) form of 2F8, light chain edited; IgG; also called 2F8 (modified)
B18: #51m (antibody, V domains shown)
VH: B1 VH with Q1E, M2V, P9A, S16A
VL: B7 VL with A90G
notes: Germline-edited (m) form of 3E7, heavy chain edited; IgG; also called 3E7 (modified)
B19: #42m (antibody, V domains shown)
VH: B1 VH with M2V, P9S, S16A
VL: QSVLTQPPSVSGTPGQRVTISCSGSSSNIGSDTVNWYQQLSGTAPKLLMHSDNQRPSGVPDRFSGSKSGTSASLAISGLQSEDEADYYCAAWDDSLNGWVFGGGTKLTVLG
notes: Germline-edited (m) form of 12C10, light chain edited; IgG; also called 12C10 (modified)
B20: 2H11 (antibody, V domains shown)
VH: QVQLVQSGGGLVKPGGSLRLSCAASGFTFTSYRMHWVRQAPGKGLEWVSSITGGGNYIEYADSVKGRFTISRDNAKNSLDLQMNSLRAEDTAIYYCARDMYGLGSYYSPNYFDPWGQGTTVTVSS
VL: QSVLTQPPSVSGAPGQRVTISCTGSSSNIGAGYDVHWYQQLPGRAPKLLIFANTNRPSGVPDRFSGSKSGASASLAISGLQAEDEAHYYCQSYDRSLNVVFGGGTELTVLG
notes: IgG made in Expi293; also called #23; 23
B21: 4G2 (antibody, V domains shown)
VH: B20 VH with Q1E, Q6E, T120L
VL: QSVLTQPPSVSGAPGQRVTISCTGSSSNIGAGYDVHWYQQLPGAAPRLLMFGNSNRPSGVPDRFSGSKSGTSASLAITGLQAEDEADYYCQSYDSSLSHVFGTGTKVTVLG
notes: IgG made in Expi293; also called #28; 28
B22: #27m (antibody, V domains shown)
VH: B20 VH with Q1E, Q6E, P114S, T120L
VL: B21 VL with H99Y
notes: Germline-edited (m) form of 10A6, light chain edited; IgG; also called 10A6 (modified)
B23: 2F1 (antibody, V domains shown)
VH: B20 VH with Q1E, Q6E, T120L
VL: QSVLTQPPSVSGAPGQRVTISCTGSSSNIGAGYDVHWYQQVPGTAPKLLIFGSTNRPSGVPDRFSGSKSGASASLAITGLQTEDEADYYCQSYDRSLSAWVFGGGTKLTVLG
notes: IgG made in Expi293; also called #24; 24
B24: 10A6 (antibody, V domains shown)
VH: B20 VH with Q1E, Q6E, P114S, T120L
VL: B21 VL with Q1S, S2Y, V3E, H99Y
notes: IgG made in Expi293; also called #27; 27
B25: 2G11 (antibody, V domains shown)
VH: B20 VH with Q1E, Q6E, K13Q, T120L
VL: B21 VL with H99Y
notes: IgG made in Expi293; also called #29; 29
B26: 4H1 (antibody, V domains shown)
VH: EVQLVESGGGLVKPGGSLRLSCAGSGFTFSSYTMHWVRQAPGKGLEWVSSITGGSSYVDYSASVKGRFTISRDNAQSSLYLQMNSLRAEDTAVYYCARDDYGSGSYSNWFDPWGQGTLVTVSS
VL: QSVLTQPPSVSGAPGQRVTISCTGSSSNIGAGYDVHWYQQVPGTAPKLLIFGSTNRPSGVPDRFSGSKSGASASLAITGLQADDEADYYCQPYDRSLSHVFGTGTKVTVLR
notes: IgG made in Expi293; also called #3
B27: 1E6 (antibody, V domains shown)
VH: B20 VH with Q1E, Q6E, T120L
VL: B26 VL with V41L, T44R, G52A, S53N, P92S, R111G
notes: IgG made in Expi293; also called #22; 22
B28: 13C2 (antibody, V domains shown)
VH: B20 VH with Q1E, Q6E, T120L
VL: B26 VL with N55D, A71N, S72T, A76T, T78S, D83E, P92S, R111G
notes: IgG made in Expi293; also called #25; 25
B29: 4G1 (antibody, V domains shown)
VH: QVTLKESGGGLVKPGGSLRLSCAASGFRLSSYGMNWVRQAPGKGLEWVSSISASSSFINYADSVRDRFTISRDNAKNSLYLQMNSLRAEDTAVYYCARDDYGSGSYSNWFDPWGQGTLVTVSS
VL: B26 VL with S25N, I29L, V41L, T44R, G52A, S53N, G79S, P92S, R111G
notes: IgG made in Expi293; also called #33; 33
B30: #33m (antibody, V domains shown)
VH: B29 VH with Q1E, T3Q, K5V
VL: B26 VL with S25N, I29L, V41L, T44R, G52A, S53N, G79S, P92S, R111G
notes: Germline-edited (m) form of 4G1, heavy chain edited; IgG; also called 4G1 (modified)
B31: 2G1 (antibody, V domains shown)
VH: B20 VH with Q3T, V5K, Q6E, T120L
VL: B26 VL with V41L, A82T, D83E, P92S, R111G
notes: IgG made in Expi293; also called #21; 21
B32: 2E7 (antibody, V domains shown)
VH: B26 VH
VL: B21 VL with Q1S, S2Y, V3E, V10A, A13T, E83D, S95R
notes: IgG made in Expi293; also called #6
B33: 4E3 (antibody, V domains shown)
VH: B26 VH
VL: B26 VL with P92S, R111G
notes: IgG made in Expi293
B34: 4H5 (antibody, V domains shown)
VH: B26 VH
VL: B21 VL with S95R
notes: IgG made in Expi293
B35: 2H8 (antibody, V domains shown)
VH: B20 VH with Q1E, Q6E, V12A, T120L
VL: B21 VL with S95R
notes: IgG made in Expi293; also called #26; 26
B36: 13H9 (antibody, V domains shown)
VH: QVQLVQSGAEVKKPGASVKVSCKASGYTGYTFTDYGLSWVRQAPGHGLEWMGWITAYNGDTNYAQKFQDRLSVTTDISTSTAYMELRSLKSDDTAVYYCARHVFCSGDGCYSGLGSWGQGTLVTVSS
VL: B7 VL with Q1S, S2Y, V3E, T5I, S72A, G77S, R80Q, T91A, N95S, K106E
notes: IgG made in Expi293; also called #47; 47
B37: #47m (antibody, V domains shown)
VH: B36 VH
VL: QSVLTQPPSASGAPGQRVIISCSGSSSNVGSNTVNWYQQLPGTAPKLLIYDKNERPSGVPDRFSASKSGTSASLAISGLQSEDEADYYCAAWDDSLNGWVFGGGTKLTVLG
notes: Germline-edited (m) form of 13H9, light chain edited; IgG; also called 13H9 (modified)

Molecular target: DS-Cav1 (RSV F-protein, pre-form, in-house) (respiratory syncytial virus (RSV), UniProt P03420 26-513)
Sequence (P03420 26-524): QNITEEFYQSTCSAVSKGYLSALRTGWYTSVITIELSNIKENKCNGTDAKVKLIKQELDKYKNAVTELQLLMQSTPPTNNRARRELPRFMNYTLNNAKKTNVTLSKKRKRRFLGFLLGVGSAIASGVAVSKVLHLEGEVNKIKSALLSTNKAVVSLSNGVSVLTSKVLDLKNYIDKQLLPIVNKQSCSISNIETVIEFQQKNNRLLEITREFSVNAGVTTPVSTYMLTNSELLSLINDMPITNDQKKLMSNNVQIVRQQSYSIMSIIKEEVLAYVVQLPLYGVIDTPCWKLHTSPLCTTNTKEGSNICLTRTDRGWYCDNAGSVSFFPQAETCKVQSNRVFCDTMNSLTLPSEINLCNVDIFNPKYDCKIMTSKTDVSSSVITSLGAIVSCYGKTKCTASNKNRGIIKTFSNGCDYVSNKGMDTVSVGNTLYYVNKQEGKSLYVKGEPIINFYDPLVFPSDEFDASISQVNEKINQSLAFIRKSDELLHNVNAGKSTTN
Assay: ELISA, coated DS-Cav1, IgG titrated

Row | Binder | Kd
1 | B1 | ~0.27 nM
2 | B2 | ~0.39 nM
3 | B3 | ~2.11 nM
4 | B4 | ~0.47 nM
5 | B5 | ~1.25 nM
6 | B6 | ~0.45 nM
7 | B7 | ~1.11 nM
8 | B8 | ~1.23 nM
9 | B9 | ~1.24 nM
10 | B10 | ~0.7 nM
11 | B11 | ~0.95 nM
12 | B12 | ~0.44 nM
13 | B13 | ~1.26 nM
14 | B14 | ~0.67 nM
15 | B15 | ~2.15 nM
16 | B16 | ~0.37 nM
17 | B17 | ~1.08 nM
18 | B18 | ~1.26 nM
19 | B19 | ~1.25 nM

Row | Binder | Kd
20 | B20 | ~0.45 nM
21 | B21 | ~1.05 nM
22 | B22 | ~1.41 nM
23 | B23 | ~0.66 nM
24 | B24 | ~1.56 nM
25 | B25 | ~0.85 nM
26 | B26 | ~1.73 nM
27 | B27 | ~0.34 nM
28 | B28 | ~1.16 nM
29 | B29 | ~0.27 nM
30 | B30 | ~0.97 nM
31 | B31 | ~0.55 nM
32 | B32 | ~0.4 nM
33 | B33 | ~0.33 nM
34 | B34 | ~0.23 nM
35 | B35 | ~0.42 nM
36 | B36 | ~0.61 nM
37 | B37 | ~0.94 nM
